Experimental findings from patent US20090291083A1, “BARB4 TARGET, ANTIBODY DESIGNATED BARB4, BARB4 RELATED ANTIBODIES, AND METHODS OF MAKING AND USING SAME” (PATRYS LIMITED, priority 2008, published 2009) are described below.

What all share (assay): MTT cell proliferation assay (Table 2)
Holding throughout (type): cell-based, human
A general note: Tetrazolium dyes change colour on reduction, which living cells bring about.

One assay relates to MIAPaCa-2. The following applies: EC50. The procedure:
(§1) BARB4 was also evaluated for inhibition of proliferation of other cancer cell lines, including BxPC-3, COLO 205, H460, MDA-MB-231 and MIAPaCa-2 cells, as well as HT-29, HCT-116, BxPC-3, PANC-1, A549, PC-3 and HCT116 cells. In brief, various human cancer cell lines obtained from the American Type Culture Collection (ATCC) were established using standard in vitro culture methods and ATCC recommended media in 175 cm2 BD tissue culture treated flasks. In particular, MDAMB-231 cultures were incubated in a humidified 37° C., 100% air incubator, and BxPC-3, COLO 205, H460 and MIAPaCa-2 cultures were incubated in a humidified 37° C., 5% CO2, 95% air incubator. Cultures were sub-cultivated regularly to maintain log phase growth. All cell lines were brought up from cryopreservation using the original recommended ATCC media type and supplements. Cell line specific seeding densities were based on historical data from MIR Preclinical Services for growth over a 72 hr period.
(§2) On the day of IC50 plate seeding, the adherent cells were removed from the flasks for each cell line using trypsin EDTA, 1× (Cell Gro #25-053-CI). Trypsin was deactivated using complete media and the cells were pooled (each line done separately). The pooled cells in complete media were counted using trypan blue exclusion with a Neubauer Bright-Line® hemacytometer. The percent viability for each cell line was as follows:
(§3) Based on live cell counts, each suspension was then diluted in complete media (containing required supplements) to achieve the desired seeding density for each cell line. Once seeded, the cells were allowed to attach to the plates overnight and then treated with BA4 or cisplatin 24 hr post-seeding.
(§4) BARB4 was serially diluted 1:2 (2× final conc. in dilution reservoir=1600 μg/ml) in media to achieve a final 800 μg/ml starting concentration in the top dosage wells of the treatment plate by diluting 1:2 when transferred from the reservoir to the treatment plate. Antibody was added to columns 1 through 10 of the treatment plate. Column 11 was for cells+media only control and column 12 was for a media only blank. Cisplatin (positive control) was manufactured by Sigma (# M4394, lot 087K1349) and supplied as a fine, dark yellow powder, in an amber vial, stored at room temperature and housed in a covered box to prevent exposure to light. Cisplatin was previously dissolved in 0.9% saline to make a clear, colorless 4 mM stock solution, aliquoted and frozen at −20° C. Frozen aliquots were quickly thawed by holding the tubes in hand, placed on wet ice and diluted (2× conc. dilution reservoir) to achieve a final 1 mM starting concentration in the top dosage wells of the treatment plate (diluted 1:2 when transferred from the dilution reservoir to the treatment plate). Serial dilutions of 1:4 were made from wells 1 through 10 of the dilution reservoir prior to transfer to the treatment plate.
(§5) The BARB4 stock solution (10.5 mg/ml) was prepared by dilution in complete media according to the table below for a final starting treatment concentration of 800 μg/ml. The 4 mM stock solution of cisplatin in 0.9% saline was diluted in complete media for a final starting treatment concentration of 1 mM.
(§6) Cells were exposed to BARB4 or cisplatin for a 24 hr period. The plates were incubated overnight at 37° C. At 24 hr and 48 hr post-treatment, the MTT assay was performed as described below.
(§7) The anti-proliferative activity of BARB4 and cisplatin was evaluated using the MTT cell proliferation assay (ATCC catalog #30-1010K). The assay is based on the reduction of yellow tetrazolium MTT (3-(4,5-dimethylthiazolyl-2)-2,5-diphenyltetrazolium bromide) by metabolically active cells forming purple formazan crystals. […]

The next assay relates to BxPC-3. Particulars: for IC50, BA4 (24 hr): MTT 24 hr post-treatment; for IC50, BA4 (48 hr): MTT 48 hr post-treatment. The procedure:
as §1, §2, §3, §4, §5, §6, §7

In another assay the test system is COLO 205. The following applies: EC50. Here is the method:
as §1, §2, §3, §4, §5, §6, §7

In another assay the test system is H460. Particulars: EC50. Here is the method:
as §1, §2, §3, §4, §5, §6, §7

In the next assay the test system is MDA-MB-231. The following applies: EC50. Here is the method: as §1, §2, §3, §4, §5, §6, §7
Where [1] appears, read: BxPC-3, b280: really EC50 of total observed effect.

Bounds are passed on as bounds.

B1: BARB4: human IgG antibody produced by hybridoma DSMZ Deposit No. DSM ACC2876; heavy chain SEQ ID NOs:1, 3, 5, 7, light chain SEQ ID NO:9 (antibody, V domains shown)
VH: QVQLVESGGGVVQPGRSLRLSCAASGFRFTTHGMHWVRQAPGKGLEWVAVISYNGRNKYYADYVNGRFTISRDDSRDTVFLQMNSLRPEDTAMYYCAKVRGDGYGDYGYFDYWGHGTLVSVSS
VL: QSALTQPRSVSGSPGQSVTISCTGTYNYVSWYQQHPGKAPKLMIFDVSRRSSGVPDRFSGSKSGNTASLTISGLQAEDEADYYCCSYGGTYLYVFGTGTTVTVLGQ
Regarding B1, the “IC50, BA4 (24 hr)” value is 34.9 µg/mL in the assay on MIAPaCa-2 (MTT 24 hr post-treatment); over 800 µg/mL in the assay on BxPC-3 (setting [1]); over 800 µg/mL in the assay on BxPC-3 (BxPC-3 repeat, EC50); 66.8 µg/mL in the assay with COLO 205 (MTT 24 hr post-treatment); 413 µg/mL in the assay with H460 (MTT 24 hr post-treatment); 154 µg/mL in the assay on MDA-MB-231 (MTT 24 hr post-treatment). Moreover, the “IC50, BA4 (48 hr)” value is 21.1 µg/mL with MIAPaCa-2 (MTT 48 hr post-treatment); over 800 µg/mL in the assay on BxPC-3 (setting [1]); over 800 µg/mL with BxPC-3 (BxPC-3 repeat, EC50); 2.78 µg/mL in the assay with COLO 205 (MTT 48 hr post-treatment); over 800 µg/mL in the assay with H460 (MTT 48 hr post-treatment); 193 µg/mL in the assay with MDA-MB-231 (MTT 48 hr post-treatment).
